Ends that are not written are not given here. * marks the point of attachment. FITC = O=C1OC2(c3ccc(O)cc3Oc3cc(O)ccc32)c2ccc(NC(=S)*)cc21
Experiment: Separation of FITC labeled peptides in dynamically coated chip; charge from migration time relative to EOF
Format: physicochemical
Conditions: 0.05% ammonium guar; determined by migration time relative to EOF
Text: The coating procedure and the separation conditions were the same as described previously. The surface modifying polymer was 0.05% ammonium guar. Three FITC labeled peptides (obtained from AnaSpec, San Jose, Calif.), which differed by one charge from each other (FITC-KKAA, FITC-KKKA and FITC-KKKK), were separated and detected 0.5 cm from the injection point on the anodal side. […] FITC-KKKA and FITC-KKKK migrated electrophoretically against the EOF. The net charge of FITC-KKKK was greater than +1.

| Substance | net charge |
| --- | --- |
| FITC-KKAA: FITC labeled peptide, SEQ ID NO:1, from AnaSpec ({FITC}-KKAA) | negatively charged |
| FITC-KKKA: FITC labeled peptide, SEQ ID NO:2, from AnaSpec ({FITC}-KKKA) | positive charged |
